Starred links: 1 amine or outer side, 2 acyl side, 3 side chain; linkers in the order of their positions; H or OH if unused. Positions of bridges follow the written chain, without caps; N, C: chain ends. Non-standard residues stand in square brackets, D forms with d. Groups on a side chain read outwards from the residue. No end group written: not given here. *: point of attachment. Gal = N6-(4-(galactopyranosyloxy)butanoyl) on the lysine side chain; N_Butyl_Phe = CCCCN([C@@H](Cc1ccccc1)C(=O)[*:2])[*:1]; C18 diacid = O=C(O)CCCCCCCCCCCCCCCCC(=O)*; Dip = N[C@H](C(=O)O)C(c1ccccc1)c1ccccc1; γGlu = O=C(O)[C@H](CCC(=O)[*:2])N[*:1]; Palmitoyl = CCCCCCCCCCCCCCCC(=O)*; Myristoyl = CCCCCCCCCCCCCC(=O)*; β3hF = N[C@H](CC(=O)O)Cc1ccccc1; Isovaleryl = CC(C)CC(=O)*; Dap = NC[C@H](N)C(=O)O; AEEA = NCCOCCOCC(=O)O; Ahx = NCCCCCC(=O)O; NHPr = CCCN*

We go through 19 molecules from US20240066131A1 (Protagonist Therapeutics, Inc., priority 2020, published 2024).

The chains are these.
B1: Isovaleric Acid-[Lys(1PEG2_1PEG2_IsoGlu_C18_Diacid)]-T-H-[Dpa]-P-A-I-[(D)Lys]-[bhPhe]-NH2 (peptide)
peptide: Isovaleryl-K([AEEA-AEEA-γGlu-C18 diacid])TH[Dip]PAI[dK][β3hF]-NH2
SMILES: CC[C@H](C)[C@H](NC(=O)[C@H](C)NC(=O)[C@@H]1CCCN1C(=O)[C@@H](NC(=O)[C@H](Cc1c[nH]cn1)NC(=O)[C@@H](NC(=O)[C@H](CCCCNC(=O)COCCOCCNC(=O)COCCOCCNC(=O)CC[C@H](NC(=O)CCCCCCCCCCCCCCCCC(=O)O)C(=O)O)NC(=O)CC(C)C)[C@@H](C)O)C(c1ccccc1)c1ccccc1)C(=O)N[C@H](CCCCN)C(=O)N[C@H](CC(N)=O)Cc1ccccc1
B2: Isovaleric Acid-[Lys(GalNH-T-H-[Dpa]-P-A-I-[Lys(Ahx_Palm)]-[bhPhe]-NH2 (peptide)
peptide: Isovaleryl-K(GalNH)TH[Dip]PAIK([Ahx-Palmitoyl])[β3hF]-NH2
B3: Isovaleric Acid-E-T-H-F-P-Dap-I-[Lys(1PEG2_1PEG2_IsoGlu_C18_Diacid)]-F-E-P-R-S-K-G-D-K-NH2 (peptide)
peptide: Isovaleryl-ETHFP[Dap]IK([AEEA-AEEA-γGlu-C18 diacid])FEPRSKGDK-NH2
modifications: lactam 6-16
SMILES: CC[C@H](C)[C@@H]1NC(=O)[C@@H](NC(=O)[C@@H]2CCCN2C(=O)[C@H](Cc2ccccc2)NC(=O)[C@H](Cc2c[nH]cn2)NC(=O)[C@@H](NC(=O)[C@H](CCC(=O)O)NC(=O)CC(C)C)[C@@H](C)O)CNC(=O)C[C@@H](C(=O)N[C@@H](CCCCN)C(N)=O)NC(=O)CNC(=O)[C@H](CCCCN)NC(=O)[C@H](CO)NC(=O)[C@H](CCCNC(=N)N)NC(=O)[C@@H]2CCCN2C(=O)[C@H](CCC(=O)O)NC(=O)[C@H](Cc2ccccc2)NC(=O)[C@H](CCCCNC(=O)COCCOCCNC(=O)COCCOCCNC(=O)CC[C@H](NC(=O)CCCCCCCCCCCCCCCCC(=O)O)C(=O)O)NC1=O
B4: Isovaleric Acid-L-T-H-[Dpa]-[Lys(1PEG2_1PEG2 IsoGlu_C18_Diacid)]-N_Ethyl Phe (peptide)
peptide: Isovaleryl-LTH[Dip]K([AEEA-AEEA-γGlu-C18 diacid])[N_Ethyl_Phe]
B5: Ac-[Lys(1PEG2_1PEG2_Ahx_C18_Diacid)]-T-H-[Dpa]-P-A-I-[(D)Lys]-[bhPhe]-NH2 (peptide)
peptide: Ac-K([AEEA-AEEA-Ahx-C18 diacid])TH[Dip]PAI[dK][β3hF]-NH2
SMILES: CC[C@H](C)[C@H](NC(=O)[C@H](C)NC(=O)[C@@H]1CCCN1C(=O)[C@@H](NC(=O)[C@H](Cc1c[nH]cn1)NC(=O)[C@@H](NC(=O)[C@H](CCCCNC(=O)COCCOCCNC(=O)COCCOCCNC(=O)CCCCCNC(=O)CCCCCCCCCCCCCCCCC(=O)O)NC(C)=O)[C@@H](C)O)C(c1ccccc1)c1ccccc1)C(=O)N[C@H](CCCCN)C(=O)N[C@H](CC(N)=O)Cc1ccccc1
B6: Isovaleric Acid-E-T-H-F-P-A-I-[Lys(Ahx_C10_acid)]-F-E-P-R-S-K-G-A-K-NH2 (peptide)
peptide: Isovaleryl-ETHFPAIK([Ahx-C10 acid])FEPRSKGAK-NH2
B7: Isovaleric Acid-L-T-H-[Dpa]-[Lys(1PEG2_1PEG2_IsoGlu_C18_Diacid)]-Benzyl_Amine (peptide)
peptide: Isovaleryl-LTH[Dip]K([AEEA-AEEA-γGlu-C18 diacid])-Benzyl_Amine
B8: Isovaleric Acid-[Lys(1PEG2_1PEG2_Ahx_C18_Diacid)]-T-H-[Dpa]-P-A-I-[(D)Lys]-[bhPhe]-NH2 (peptide)
peptide: Isovaleryl-K([AEEA-AEEA-Ahx-C18 diacid])TH[Dip]PAI[dK][β3hF]-NH2
SMILES: CC[C@H](C)[C@H](NC(=O)[C@H](C)NC(=O)[C@@H]1CCCN1C(=O)[C@@H](NC(=O)[C@H](Cc1c[nH]cn1)NC(=O)[C@@H](NC(=O)[C@H](CCCCNC(=O)COCCOCCNC(=O)COCCOCCNC(=O)CCCCCNC(=O)CCCCCCCCCCCCCCCCC(=O)O)NC(=O)CC(C)C)[C@@H](C)O)C(c1ccccc1)c1ccccc1)C(=O)N[C@H](CCCCN)C(=O)N[C@H](CC(N)=O)Cc1ccccc1
B9: Isovaleric Acid-E-T-H-F-P-E-I-[Lys(1PEG2_1PEG2_IsoGlu_C18_Diacid)]-F-E-P-R-S-K-G-Dap-K-NH2 (peptide)
peptide: Isovaleryl-ETHFPEIK([AEEA-AEEA-γGlu-C18 diacid])FEPRSKG[Dap]K-NH2
modifications: lactam 6-16
SMILES: CC[C@H](C)[C@@H]1NC(=O)[C@@H](NC(=O)[C@@H]2CCCN2C(=O)[C@H](Cc2ccccc2)NC(=O)[C@H](Cc2c[nH]cn2)NC(=O)[C@@H](NC(=O)[C@H](CCC(=O)O)NC(=O)CC(C)C)[C@@H](C)O)CCC(=O)NC[C@@H](C(=O)N[C@@H](CCCCN)C(N)=O)NC(=O)CNC(=O)[C@H](CCCCN)NC(=O)[C@H](CO)NC(=O)[C@H](CCCNC(=N)N)NC(=O)[C@@H]2CCCN2C(=O)[C@H](CCC(=O)O)NC(=O)[C@H](Cc2ccccc2)NC(=O)[C@H](CCCCNC(=O)COCCOCCNC(=O)COCCOCCNC(=O)CC[C@H](NC(=O)CCCCCCCCCCCCCCCCC(=O)O)C(=O)O)NC1=O
B10: Isovaleric Acid-E-T-H-F-P-A-I-[Lys(Ahx_C14_acid)]-F-E-P-R-S-K-G-A-[(D)Lys]-NH2 (peptide)
peptide: Isovaleryl-ETHFPAIK([Ahx-Myristoyl])FEPRSKGA[dK]-NH2
SMILES: CCCCCCCCCCCCCC(=O)NCCCCCC(=O)NCCCC[C@H](NC(=O)[C@@H](NC(=O)[C@H](C)NC(=O)[C@@H]1CCCN1C(=O)[C@H](Cc1ccccc1)NC(=O)[C@H](Cc1c[nH]cn1)NC(=O)[C@@H](NC(=O)[C@H](CCC(=O)O)NC(=O)CC(C)C)[C@@H](C)O)[C@@H](C)CC)C(=O)N[C@@H](Cc1ccccc1)C(=O)N[C@@H](CCC(=O)O)C(=O)N1CCC[C@H]1C(=O)N[C@@H](CCCNC(=N)N)C(=O)N[C@@H](CO)C(=O)N[C@@H](CCCCN)C(=O)NCC(=O)N[C@@H](C)C(=O)N[C@H](CCCCN)C(N)=O
B11: Isovaleric Acid-L-T-H-[Dpa]-P-[Lys(Ahx_Palm)]-N_Butyl_Phe (peptide)
peptide: Isovaleryl-LTH[Dip]PK([Ahx-Palmitoyl])[N_Butyl_Phe]
B12: Isovaleric Acid-E-T-H-F-P-A-I-[Lys(Ahx_C12_acid)]-F-E-P-R-S-K-G-A-K-NH2 (peptide)
peptide: Isovaleryl-ETHFPAIK([Ahx-C12 acid])FEPRSKGAK-NH2
B13: Isovaleric Acid-[Lys(Gal-T-H-[Dpa]-P-[Lys(Ahx_Palm)]-[bhPhe]-NH2 (peptide)
peptide: Isovaleryl-K(Gal)TH[Dip]PK([Ahx-Palmitoyl])[β3hF]-NH2
B14: Isovaleric Acid-E-T-H-F-P-A-I-[Lys(Ahx_C14_acid)]-F-E-P-R-S-K-G-A-K-NH2 (peptide)
peptide: Isovaleryl-ETHFPAIK([Ahx-Myristoyl])FEPRSKGAK-NH2
B15: Isovaleric Acid-E-T-H-F-P-Dap-I-[Lys(1PEG2_1PEG2_IsoGlu_C18_Diacid)]-F-E-P-R-S-K-G-E-K-NH2 (peptide)
peptide: Isovaleryl-ETHFP[Dap]IK([AEEA-AEEA-γGlu-C18 diacid])FEPRSKGEK-NH2
modifications: lactam 6-16
SMILES: CC[C@H](C)[C@@H]1NC(=O)[C@@H](NC(=O)[C@@H]2CCCN2C(=O)[C@H](Cc2ccccc2)NC(=O)[C@H](Cc2c[nH]cn2)NC(=O)[C@@H](NC(=O)[C@H](CCC(=O)O)NC(=O)CC(C)C)[C@@H](C)O)CNC(=O)CC[C@@H](C(=O)N[C@@H](CCCCN)C(N)=O)NC(=O)CNC(=O)[C@H](CCCCN)NC(=O)[C@H](CO)NC(=O)[C@H](CCCNC(=N)N)NC(=O)[C@@H]2CCCN2C(=O)[C@H](CCC(=O)O)NC(=O)[C@H](Cc2ccccc2)NC(=O)[C@H](CCCCNC(=O)COCCOCCNC(=O)COCCOCCNC(=O)CC[C@H](NC(=O)CCCCCCCCCCCCCCCCC(=O)O)C(=O)O)NC1=O
B16: Isovaleric Acid-E-T-H-F-P-D-I-[Lys(1PEG2_1PEG2_IsoGlu_C18_Diacid)]-F-E-P-R-S-K-G-Dap-K-NH2 (peptide)
peptide: Isovaleryl-ETHFPDIK([AEEA-AEEA-γGlu-C18 diacid])FEPRSKG[Dap]K-NH2
modifications: lactam 6-16
SMILES: CC[C@H](C)[C@@H]1NC(=O)[C@@H](NC(=O)[C@@H]2CCCN2C(=O)[C@H](Cc2ccccc2)NC(=O)[C@H](Cc2c[nH]cn2)NC(=O)[C@@H](NC(=O)[C@H](CCC(=O)O)NC(=O)CC(C)C)[C@@H](C)O)CC(=O)NC[C@@H](C(=O)N[C@@H](CCCCN)C(N)=O)NC(=O)CNC(=O)[C@H](CCCCN)NC(=O)[C@H](CO)NC(=O)[C@H](CCCNC(=N)N)NC(=O)[C@@H]2CCCN2C(=O)[C@H](CCC(=O)O)NC(=O)[C@H](Cc2ccccc2)NC(=O)[C@H](CCCCNC(=O)COCCOCCNC(=O)COCCOCCNC(=O)CC[C@H](NC(=O)CCCCCCCCCCCCCCCCC(=O)O)C(=O)O)NC1=O
B17: Isovaleric Acid-L-T-H-[Dpa]-[Lys(1PEG2_1PEG2_IsoGlu_C18_Diacid)]-N_Butyl Phe (peptide)
peptide: Isovaleryl-LTH[Dip]K([AEEA-AEEA-γGlu-C18 diacid])[N_Butyl_Phe]
B18: Ac-[Lys(1PEG2_1PEG2_IsoGlu_C18_Diacid)]-T-H-[Dpa]-P-A-I-[(D)Lys]-[bhPhe]-NH2 (peptide)
peptide: Ac-K([AEEA-AEEA-γGlu-C18 diacid])TH[Dip]PAI[dK][β3hF]-NH2
SMILES: CC[C@H](C)[C@H](NC(=O)[C@H](C)NC(=O)[C@@H]1CCCN1C(=O)[C@@H](NC(=O)[C@H](Cc1c[nH]cn1)NC(=O)[C@@H](NC(=O)[C@H](CCCCNC(=O)COCCOCCNC(=O)COCCOCCNC(=O)CC[C@H](NC(=O)CCCCCCCCCCCCCCCCC(=O)O)C(=O)O)NC(C)=O)[C@@H](C)O)C(c1ccccc1)c1ccccc1)C(=O)N[C@H](CCCCN)C(=O)N[C@H](CC(N)=O)Cc1ccccc1
B19: Isovaleric Acid-L-T-H-[Dpa]-[Lys(1PEG2_1PEG2_IsoGlu_C18_Diacid)]-Propyl_Amine (peptide)
peptide: Isovaleryl-LTH[Dip]K([AEEA-AEEA-γGlu-C18 diacid])-NHPr
SMILES: CCCNC(=O)[C@H](CCCCNC(=O)COCCOCCNC(=O)COCCOCCNC(=O)CC[C@H](NC(=O)CCCCCCCCCCCCCCCCC(=O)O)C(=O)O)NC(=O)[C@@H](NC(=O)[C@H](Cc1c[nH]cn1)NC(=O)[C@@H](NC(=O)[C@H](CC(C)C)NC(=O)CC(C)C)[C@@H](C)O)C(c1ccccc1)c1ccccc1

This assay concerns the target T1, human ferroportin (SLC40A1) fused in frame with GFP, stably expressed in HEK293 cells (human, UniProt Q9NP59 1-571).
T1 sequence (looked up): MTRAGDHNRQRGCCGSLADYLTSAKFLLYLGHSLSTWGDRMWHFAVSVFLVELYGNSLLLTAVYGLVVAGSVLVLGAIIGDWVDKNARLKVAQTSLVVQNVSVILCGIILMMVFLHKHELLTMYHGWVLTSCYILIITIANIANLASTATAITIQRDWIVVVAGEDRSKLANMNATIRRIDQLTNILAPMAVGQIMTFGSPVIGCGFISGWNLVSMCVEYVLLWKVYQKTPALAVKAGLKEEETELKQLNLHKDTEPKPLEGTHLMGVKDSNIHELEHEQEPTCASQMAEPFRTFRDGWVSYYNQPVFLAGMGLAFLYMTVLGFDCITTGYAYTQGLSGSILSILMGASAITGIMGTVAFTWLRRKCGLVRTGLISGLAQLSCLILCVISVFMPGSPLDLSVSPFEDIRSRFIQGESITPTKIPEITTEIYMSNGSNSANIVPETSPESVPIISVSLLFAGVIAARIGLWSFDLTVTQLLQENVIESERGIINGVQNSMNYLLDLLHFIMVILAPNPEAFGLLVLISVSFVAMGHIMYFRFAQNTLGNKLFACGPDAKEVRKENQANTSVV
The assay is described as follows: cell-based or functional assay.
Consider B1, for which the “FPN IC50” value amounted to 2160 nM.
On to B2, for which the “FPN IC50” value was 150 nM.
On to B3, for which the “FPN IC50” value is 6110 nM.
As for B4, the “FPN IC50” value is > 3000 nM.
Regarding B5, the “FPN IC50” value was > 3000 nM.
The same measure for B6: > 3000 nM; for B7: > 3000 nM.
On to B8, for which the “FPN IC50” value worked out at 1280 nM.
B9: the “FPN IC50” value was > 10000 nM.
To B10 belongs 1160 nM; to B11, 74 nM; to B12, 1070 nM.
Turning to B13, the “FPN IC50” value was 758 nM.
The same measure for B14: 689 nM; for B15: > 10000 nM; for B16: > 10000 nM.
To B17 belongs > 3000 nM; to B18, 3370 nM; to B19, > 3000 nM.
